In series [1] the test system is mouse mutant recombinant prethrombin-2.
The test system of series [2] is human mutant recombinant prethrombin-2.

On to “wild type human α-thrombin (Sigma Aldrich)”, for which the “protease activity (fluorescence of the cleaved fluorogenic substrate (p-tosyl-Gly-Pro-Arg)2-rhodamine 110 over time)” value in series [1] was “in the presence of WT human α-thrombin, the protease activity increased considerably with time (FIG. 4, curves a, b), compared to the samples where only WT α-thrombin was added”; in series [2] it was “in the presence of WT human α-thrombin, the protease activity increased considerably with time (FIG. 4, curves a, b), compared to the samples where only WT α-thrombin was added”.

Turning to “α-thrombin immobilized on agarose (Thrombin CleanCleave Kit, Sigma-Aldrich)”, in series [1], the “cleavage of the proenzyme” value was “Mouse mutant prethrombin-2 was cleaved using Thrombin CleanCleave™ Kit”.

The values are drawn from patent US20140322736.
